Assay results taken from the supplement of paper PMC9732359.
± gives the uncertainty stated by the source.

Assay: protein stability index of a GFP-peptide fusion (yeast GPS) (PSI 1-4); higher = more stable; sorted into four equal gates, so the index is relative within each strain
Method in brief: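 The protein stability index of a peptide was calculated by multiplying its read frequency in each gate by that gate's number and adding the products. The peptides were tiled 17-residue stretches of yeast proteins, fused downstream of GFP on a Cherry-expressing plasmid and carried in yeast as a pooled library. Mid-log cultures in leucine-free medium were sorted into four equal gates by GFP/Cherry ratio, and each gate's plasmids were PCR-amplified and Illumina-sequenced.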

Sequence | protein stability index (doa10∆) | protein stability index (pdr5∆) | protein stability index (san1∆) | protein stability index (ubr1∆)
PVRTIVPISTSQTNNSF [SIR4] | 2.04 ± 0.04 | 2.2 ± 0.047 | 2.22 ± 0.052 | 2.28 ± 0.034
DEGLLNMVSLRGRNDTL [GRR1] | 2.55 ± 0.15 | 2.49 ± 0.14 | 2.51 ± 0.097 | 2.83 ± 0.17
LYFEIIHGVLKNVDREV [FAS2] | 3.04 ± 0.09 | 2.04 ± 0.099 | 2.63 ± 0.13 | 1.64 ± 0.18
VFQAKMMDMLKQTGRDQ [RPN11] | 2.56 ± 0.061 | 2.58 ± 0.07 | 2.52 ± 0.077 | 2.96 ± 0.062
PGPLPDTDSKPSSQSQN [YLR018C/POM34] | 3.06 ± 0.079 | 3.15 ± 0.061 | 3.17 ± 0.063 | 2.98 ± 0.061
ERHQAGKNQWFFSKLRF [RPL27A] | 3.19 ± 0.091 | 3.24 ± 0.092 | 3.09 ± 0.075 | 3.18 ± 0.046
LVIKSGKYTLGYKSTVK [RPL30] | 2.75 ± 0.079 | 2.96 ± 0.061 | 2.5 ± 0.079 | 2.87 ± 0.05
YKALRGMVSHKTARGKA [RPL16A] | 2.45 ± 0.08 | 2.1 ± 0.06 | 2.51 ± 0.096 | 1.84 ± 0.12
PNEFEIQLSTVNRQSPL [RGR1] | 2.19 ± 0.063 | 2.65 ± 0.057 | 2.69 ± 0.054 | 2.45 ± 0.055
SRPASYGYFSVGKRVPI [SIR4] | 2.31 ± 0.19 | 2.14 ± 0.11 | 2.15 ± 0.13 | –
PQIRQEIEQLDQYIQKQ [YGL172W/NUP49] | 2.7 ± 0.061 | 2.76 ± 0.046 | 2.54 ± 0.054 | 2.78 ± 0.049
EVKLKASLKKMEETEQK [SMC3] | – | 3.16 ± 0.15 | 3.2 ± 0.17 | 3.53 ± 0.25
KLEYPHTDVSSSLEARY [RPN3] | 2.76 ± 0.066 | 3.01 ± 0.073 | 2.75 ± 0.077 | 2.9 ± 0.086
SVKKAGASINSMKANTS [ARP7] | 2.07 ± 0.052 | 2.46 ± 0.05 | 2.42 ± 0.054 | 2.25 ± 0.037
DPLNSNIFSEAVKNKYN [PRP28] | 1.81 ± 0.17 | 2.74 ± 0.11 | 3.02 ± 0.09 | 2.92 ± 0.096
STVKGSVDLEKLAFGLT [TAF14] | 3.58 ± 0.13 | 3.45 ± 0.091 | 3.61 ± 0.057 | 3.67 ± 0.072
SVIPLKGRYAPETGDHV [RRP4] | 2.53 ± 0.059 | 2.52 ± 0.052 | 2.67 ± 0.073 | 2.69 ± 0.041
SGTKSEVLTYVNYLISN [YJL039C/NUP192] | 2.52 ± 0.053 | 2.5 ± 0.056 | 2.54 ± 0.041 | 2.58 ± 0.044
LYPCYFDINRSHKEGRR [SEC65] | 1.15 ± 0.17 | 1.93 ± 0.16 | 1.09 ± 0.24 | 1.1 ± 0.08
KTDTKVSFRTHNSHLSL [SRP21] | 3.03 ± 0.059 | 3.06 ± 0.053 | 2.92 ± 0.053 | 3.15 ± 0.048
IDEHIDLGIKYDPSIGI [RPL11A] | 2.84 ± 0.035 | 3.06 ± 0.039 | 2.91 ± 0.03 | 2.903 ± 0.029
NLEQINEDLEDGHYIEE [REC8] | 2.93 ± 0.088 | – | 2.98 ± 0.16 | 3.2 ± 0.088
GGFTNLTSQAPQTTQMF [YDL088C/ASM4] | 3.35 ± 0.12 | 3.09 ± 0.091 | 3.38 ± 0.077 | 3.08 ± 0.068
VPVALKGQGPFTLTYDI [YMR129W/POM152] | 2.58 ± 0.096 | 2.95 ± 0.11 | 2.83 ± 0.069 | 2.8 ± 0.061
RQKNVIHRAARPTRPDK [RPL15A] | 3.31 ± 0.17 | 3.69 ± 0.16 | 3.27 ± 0.066 | 3.24 ± 0.2
GSVMSASVEIVFHDPDH [SMC3] | 2.12 ± 0.091 | 2.53 ± 0.071 | 2.4 ± 0.084 | 2.55 ± 0.061
LDEVDAALDITNVQRIA [SMC1] | 3.16 ± 0.096 | 3.06 ± 0.098 | 3.14 ± 0.1 | 3.16 ± 0.087

Sequence | protein stability index (doa10∆) | protein stability index (pdr5∆) | protein stability index (san1∆) | protein stability index (ubr1∆)
SNEEQRNLDSATLKEIK [SMC3] | 3.5 ± 0.14 | 3.21 ± 0.13 | 3.46 ± 0.084 | 3.48 ± 0.16
YYLWTGKQVFSLLIKPN [RPO31] | 1.53 ± 0.21 | – | – | 1.59 ± 0.2
LDVDPAKRIRVSHHATT [RPB2] | 3.02 ± 0.06 | 3.04 ± 0.06 | 2.79 ± 0.082 | 3 ± 0.044
FERPAVKEEKEDMETQA [RPC53] | 2.87 ± 0.24 | 2.71 ± 0.23 | 3.2 ± 0.084 | 3.46 ± 0.16
SIVLLLLSQFGIKVLPE [YML103C/NUP188] | 1.8 ± 0.096 | 1.28 ± 0.085 | 1.18 ± 0.13 | 1.42 ± 0.033
NMNLNPQMFLNQQAQAR [GAL11] | 1.92 ± 0.035 | 2.42 ± 0.035 | 2.37 ± 0.056 | 2.04 ± 0.03
LTFHTLKKANIIYHTTF [YLR018C/POM34] | 1.9 ± 0.036 | 2.25 ± 0.038 | 2 ± 0.05 | 1.98 ± 0.028
VGKTVKQLIMESQEKYM [NSL1] | 3.17 ± 0.097 | 3.18 ± 0.073 | 2.8 ± 0.067 | 3.34 ± 0.055
SLGIAQPKGVILYGPPG [RPT6] | 2.71 ± 0.061 | 2.89 ± 0.072 | 2.77 ± 0.089 | 2.91 ± 0.077
ANKEKRAIILERNAAYQ [RPL7A] | 1.2 ± 0.072 | 1.38 ± 0.081 | 1.14 ± 0.11 | 1.32 ± 0.2
IYFTVPNEFEIQLSTVN [RGR1] | 2.21 ± 0.064 | 2.22 ± 0.058 | 1.88 ± 0.061 | 2.2 ± 0.042
NLYMLVTTCVYLACKVE [SSN8] | – | – | 1.62 ± 0.25 | –
PSSEVYSPIEKESPWKI [RRP6] | 2.87 ± 0.15 | 3.03 ± 0.1 | 2.82 ± 0.12 | 3.29 ± 0.11
FRTDMLQVADKFFRVKY [SMC3] | 1.92 ± 0.068 | 2.49 ± 0.066 | 1.77 ± 0.076 | 2.12 ± 0.051
VTVFLFMLILALFVFYS [COB] | 2.32 ± 0.067 | 1.8 ± 0.042 | 2.27 ± 0.057 | 1.99 ± 0.039
AQHESFLRQKICLMTLI [RPN9] | 1.26 ± 0.072 | 1.33 ± 0.082 | 1.15 ± 0.11 | 1.56 ± 0.064
ENLNRNWRGREHWKVRN [BRN1] | 3.57 ± 0.11 | 3.33 ± 0.14 | 3.37 ± 0.063 | 3.5 ± 0.08
PSKVSKIDSHVVLSFSG [PRE6] | 1.71 ± 0.062 | 1.77 ± 0.058 | 1.74 ± 0.12 | 1.87 ± 0.057
FNTNSSFTPSTVPNINF [YOR098C/NUP1] | 2.48 ± 0.04 | 2.42 ± 0.032 | 2.54 ± 0.04 | 2.77 ± 0.029
SENVFEGLTYKYPARRI [SSN3] | 3.18 ± 0.11 | 3 ± 0.17 | 2.62 ± 0.17 | 2.86 ± 0.089
RSILQSLNPALQEKIST [SWI1] | 2.45 ± 0.056 | 2.79 ± 0.069 | 2.72 ± 0.1 | 2.71 ± 0.073
EANWPLPVNIRRIIQNA [RPO21] | 1.77 ± 0.088 | 1.37 ± 0.089 | – | 1.04 ± 0.064
LKAVTVEAGMIALRNGQ [RPT5] | 3.1 ± 0.23 | 2.9 ± 0.16 | 2.51 ± 0.17 | –
SDIVFIHQNAGRLLRAM [BRR2] | 1.73 ± 0.054 | 1.71 ± 0.054 | 1.9 ± 0.071 | 2.02 ± 0.06
AKNKSTRINGLNSNNSI [REC8] | 3.43 ± 0.14 | 3.15 ± 0.098 | 3.25 ± 0.061 | 3.27 ± 0.073
DSIASVLSPDSNIMSDS [GAL11] | 2.74 ± 0.1 | 2.98 ± 0.073 | 3.03 ± 0.064 | 3.09 ± 0.099
